Reference: the supplement of paper PMC9170038

Test system: MS2 coat protein
Assay: apparent KD of MS2 coat protein; designed switch direction (-1 OFF switch, 1 ON switch): -1; higher = weaker reporter binding
Outline: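 On Illumina chips, designed RNA switches with common flanks were made by stalled E. coli RNA polymerase. Titrations with SNAP-549-labelled MS2 coat protein, doubling from 0.7 or 1.5 nM to 3 µM, were done with no input, with 200 uM small-molecule ligand, or with an oligonucleotide input. Apparent KD is the median per design over clusters, from curve fits of normalised cluster fluorescence.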

[1] = Eterna round: R95, input ligand: microRNA oligo, concentration not stated
[2] = Eterna round: R95, input ligand: FMN 200 uM
[3] = Eterna round: R95, input ligand: none

Sequence	apparent KD of MS2 coat protein [1] [nM]	apparent KD of MS2 coat protein (input ligand: FMN 200 uM) [nM]	apparent KD of MS2 coat protein (input ligand: none) [nM]	further results
CCGGAAGUACAGGAUAUCGUAUCGGAAACGAUACGAGAAGGGUAUACAUGAGGAUCACCCAUGUGUCCUACCGG [Fiskers Ex 6 - 27] (puzzle: Exclusion 6)	23.3			
CCGGAAGUAGAGGAUAUAGGAGUCGAUAGACUCCUAGAAGGCUAUACAUGAGGAUCACCCAUGUGUCCUACCGG [Fiskers Ex 6 - 68] (puzzle: Exclusion 6)	19.1			
CCGGAAUUGAAGGAUAUAGGAGUCGAUAGACACCUAGAAGGUCAGACAUGAGGAUCACCCAUGUGUCCUACCGG [Fiskers Ex 6 - 86] (puzzle: Exclusion 6)	21			apparent KD of MS2 coat protein [2]: 27.4 nM; apparent KD of MS2 coat protein [3]: 17.4 nM
CCGGAUUAGUAGGAUAUAGGAGUCGAUAGACACCUAGAAGGACUAACAUGAGGAUCACCCAUGUGUCCUACCGG [Mod of Eli 19 - Jieux - Exclusion 6] (Eterna round: R97, puzzle: Exclusion 6)		39	16.7	
CCGGCAUGAGGAUAUCCAUCUGGAUCAGACUAGAUCCUGAUGGAGAAGGCACAUGAGGAUCACCCAUGUUACGG [Eli 4x 4.38] (Eterna round: R97, puzzle: Exclusion 4)		51.2	173	
CCGGCUUAGCAGGAUAUAGGAGUCGAUAGACACCUAGAAGGGCUAACAUGAGGAUCACCCAUGUGUCCUACCGG [Fiskers Ex 6 - 100] (puzzle: Exclusion 6)	25.9			apparent KD of MS2 coat protein [2]: 65 nM; apparent KD of MS2 coat protein [3]: 30.7 nM
CCGGCUUAGCAGGAUAUAGGAGUCGAUAGACACCUAGAAGGGCUAACAUGAGGAUCACCCAUGUGUCCUACCGG [Mod of Eli 2 - Jieux - Exclusion 6] (Eterna round: R97, puzzle: Exclusion 6)		102	47.6	
CCGGCUUAGGAGGAUAUAGGAGUCGAAAGACACCUAGAAGGCCUAACAUGAGGAUCACCCAUGUGUCCUACCGG [Mod of Eli 6 - Jieux - Exclusion 6] (Eterna round: R97, puzzle: Exclusion 6)		78.4	24	
CCGUCACAUGAGGAUCACCCAUGUCAGGAUAUCUCAGUGCAUCCACACGGACGCAUCAAGAGAAGGGACAAAAC [Vinxlusion 6 - Jieux - Exclusion 1] (Eterna round: R97, puzzle: Exclusion 1)		47.9	34.8	
CCGUGUUUAGGAUAUGCUAUGGAAGUGUUAAUAUUCAUUAGACAUGAGGAUCACCCAUGUAGAAGGAGGCCGCG [Eternabot (L1) Solution 96] (Eterna round: R97, puzzle: Exclusion 2)		340	142	
CCGUUAUGAGGAUAUCGCUUGAAAGACAUGAGGAUCACCCAUGUGGGCGCGUCCUCAUGGCGAGAAGGCAUUACGA [Enmaatama] (puzzle: Exclusion 5)	13.1			apparent KD of MS2 coat protein [2]: 9.07 nM; apparent KD of MS2 coat protein [3]: 12.6 nM
CCUACUCAGCGAGGAUAUGUAACGGUGACUAGGGACGUCUACAUGAGGAUCACCCAUGUGACUAAGCAGAAGGCGCAGAGCCCA [Learve] (Eterna round: R96, puzzle: Exclusion NG 2)		54.2	47.7	apparent KD of MS2 coat protein (input ligand: microRNA oligo, concentration not stated): 33.1 nM
CCUCAGUAAGGAUAUCAGCUUAUGGAGUUGGUAAUGAGAGCUGAGAAGGUACAUGAGGAUCACCCAUGUUAGUU [JL Zatite mod 2] (puzzle: Exclusion 4)	25.4			
CCUCAGUCACAGGAUAUGCUCAUCUAAUGAUGAGCAGAAGGGUGAACAUGAGGAUCACCCAUGUUUACGAGGGU [Omei Ex6 E7] (Eterna round: R97, puzzle: Exclusion 6)		407	555	
CCUCCCUGAGGAUAUCCACCCUCAUACAUGAGGAUCACCCAUGUUCAUCCGUGGGUACCCGGAGAAGGCAGAUUUC [Megrez-a] (Eterna round: R97, puzzle: Exclusion 5)		41.9	33.1	
CCUCGACAUGAGGAUCACCCAUGUAAGGAUAUGUUGACGAGCCUGAAAAGGCUGGUCAACAGAAGGUAUAUGUA [Exclusion 1 (Mod 1b.1 solution 16 by Eternabot)] (Eterna round: R97, puzzle: Exclusion 1)		112	28.4	
CCUCGUAACUAGGAUAUCCGAAAUAAGCGAGGAGGAGAAGGAGUUACAUGAGGAUCACCCAUGUGAUAUAAAGA [Orisxe] (puzzle: Exclusion 6)	15.5			apparent KD of MS2 coat protein [2]: 46.9 nM; apparent KD of MS2 coat protein [3]: 17.4 nM
CCUCUACAUGAGGAUCACCCAUGUGAGGAUAUCUCGGAGCAGCCACUUAAAGCACUCCAGAGAAGGCACGUGUA [Mavemain] (puzzle: Exclusion 1)	15.5			
CCUGCACAUGAGGAUCACCCAUGUCAGGAUAUCUCGCCGUGAAGAGCAACACGGUAUUAGAGAAGGGACACGGG [Tixe] (puzzle: Exclusion 1)	20.7			
